Data reported in the supplement of paper PMC12667976.
± gives the standard error.

B1: library; numbered along this chain (parent)
chain: MATDAALRRLLRLHRTEIAVAVDSAFPLLHALADHDVVPEDKFQETLHLKEKEGCPQAFHALLSWLLTQDSTAILDFWRVLFKDYNLERYGRLQPILDSFPKDVDLSQPRKGRKPPAVPKALVPPPRLPTKRKASEEARAAAPAALTPRGTASPGSQLKAKPPKKPESSAEQQRLPLGNGIQTMSASVQRAVAMSSGDVPGARGAVEGILIQQVFESGGSKKCIQVGGEFYTPSKFEDSGSGKNKARSSSGPKPLVRAKGAQGAAPGGGEARLGQQGSVPAPLALPSDPQLHQKNEDECAVCRDGGELICCDGCPRAFHLACLSPPLREIPSGTWRCSSCLQATVQEVQPRAEEPRPQEPPVETPLPPGLRSAGEEVRGPPGEPLAGMDTTLVYKHLPAPPSAAPLPGLDSSALHPLLCVGPEGQQNLAPGARCGVCGDGTDVLRCTHCAAAFHWRCHFPAGTSRPGTGLRCRSCSGDVTPAPVEGVLAPSPARLAPGPAKDDTASHEPALHRDDLESLLSEHTFDGILQWAIQSMARPAAPFPS

Variants of: B1
Assay: AIRE transcriptional activation functional score (insulin promoter-GFP; nonsense median 0, synonymous median 1) (normalised score); higher = higher AIRE activity (more reporter activation)
Conditions: with insulin promoter-GFP reporter in HEK293
Outline: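 Codon-optimized AIRE NNN-codon libraries (three regions) were integrated by Bxb1 recombinase into Flp-In T-REx HEK293 landing-pad cells carrying an insulin core promoter-GFP reporter. Integrants (mCherry+, BFP−) sorted at day 7 were expanded 7 days; top 10% GFP and unselected integrant populations were tile-sequenced. Functional score is select versus non-select variant enrichment, wild-type subtracted. Variants needed 10 counts per million in non-select; scores were rescaled to nonsense median 0 and synonymous median 1, then averaged over biological replicates.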

| Variant | AIRE transcriptional activation functional score |
| --- | --- |
| L418N | 1.02 ± 0.075 |
| E270N | 1.01 ± 0.45 |
| T46E | 1.4 ± 0.057 |
| Q358T | 0.929 ± 0.26 |
| Q342H | 0.916 ± 0.16 |
| M388E | 0.756 ± 0.16 |
| A21P | 0.125 ± 0.7 |
| G228C | 0.71 ± 0.39 |
| G462T | 0.372 ± 0.6 |
| H292Q | 0.508 ± 0.22 |
| S99Y | -0.311 ± 0.25 |
| I74N | -0.347 ± 0.074 |
| I74V | 0.51 ± 0.27 |
| E229R | 0.148 ± 0.3 |
| P398Y | 1.69 ± 0.068 |
| P398Q | 1.31 ± 0.16 |
| H14L | -0.153 ± 0.31 |
| L323Y | 0.513 ± 0.12 |
| L323V | 1.21 ± 0.17 |
| A5H | 0.534 ± 0.3 |
| A5S | 1.24 ± 0.36 |
| A61H | 1.26 ± 0.14 |
| A537G | 0.792 ± 0.15 |
| P365Q | 0.92 ± 0.13 |

| Variant | AIRE transcriptional activation functional score |
| --- | --- |
| P365I | 0.733 ± 0.41 |
| T334Y | 1.17 ± 0.19 |
| Q44C | -0.0407 ± 0.22 |
| V199M | 1.18 ± 0.14 |
| G498K | 0.572 ± 0.066 |
| P176F | 1.46 ± 0.3 |
| S250T | 0.687 ± 0.16 |
| K131H | 0.185 ± 0.12 |
| A117S | 0.692 ± 0.59 |
| A117I | 0.777 ± 0.28 |
| A117H | 1.22 ± 0.48 |
| P325Q | 0.938 ± 0.21 |
| K111C | 1.44 ± 0.27 |
| K114I | 1.03 ± 0.35 |
| K114S | 0.787 ± 0.21 |
| K114M | 0.913 ± 0.028 |
| R257D | 1.16 ± 0.094 |
| Q349P | 0.847 ± 0.16 |
| V348R | 1.19 ± 0.22 |
| E347V | 0.892 ± 0.13 |
| A19Q | -1.03 ± 0.17 |
| A19P | -0.228 ± 0.44 |
| P56C | -0.173 ± 0.26 |
| E329W | 1.13 ± 0.044 |

| Variant | AIRE transcriptional activation functional score |
| --- | --- |
| L67H | 0.742 ± 0.33 |
| S338T | 1.21 ± 0.23 |
| S338F | 0.948 ± 0.13 |
| C299W | 0.647 ± 0.032 |
| P350V | 1.01 ± 0.088 |
| H448V | 0.416 ± 0.19 |
| H448P | 0.0826 ± 0.074 |
| P542Y | 1.25 ± 0.043 |
| G527N | 0.999 ± 0.075 |
| L62S | 0.0796 ± 0.81 |
| T232D | 1.19 ± 0.14 |
| T232S | 1.15 ± 0.71 |
| S464H | 1.17 ± 0.17 |
| P355C | 1.05 ± 0.086 |
| A134I | 1.43 ± 0.48 |
| S249L | 0.67 ± 0.15 |
| Q182E | 1.46 ± 0.24 |
| L75H | 0.935 ± 1.1 |
| L75G | 0.82 ± 0.23 |
| Q293L | 1.08 ± 0.22 |
| L32A | -0.972 ± 0.61 |
| E207K | 0.169 ± 0.094 |
| Y90M | 0.613 ± 0.15 |
| E45D | 0.278 ± 0.12 |

| Variant | AIRE transcriptional activation functional score |
| --- | --- |
| V206S | 0.691 ± 0.27 |
| A399T | 0.845 ± 0.26 |
| L11E | -0.17 ± 0.24 |
| A281G | 1.5 ± 0.098 |
| E296K | 0.642 ± 0.15 |
| A258I | 0.643 ± 0.33 |
| L320Y | 1.09 ± 0.14 |
| L320R | 1.16 ± 0.2 |
| S402P | 1.07 ± 0.09 |
| S402F | 0.518 ± 0.41 |
| S402W | 1.22 ± 0.079 |
| S518K | 1.27 ± 0.089 |
| S185M | -0.432 ± 0.26 |
| D98K | -0.443 ± 0.084 |
| D98G | -0.489 ± 0.61 |
| D98M | 1.55 ± 0.044 |
| D98V | 0.341 ± 0.23 |
| S476D | 0.455 ± 0.12 |
| Q262G | 1.33 ± 0.34 |
| Q262T | 0.795 ± 0.28 |
| F236G | 0.726 ± 0.27 |
| L529H | -0.499 ± 0.13 |
| L28I | 0.53 ± 0.16 |
| R149W | 1.11 ± 0.26 |

| Variant | AIRE transcriptional activation functional score |
| --- | --- |
| P367M | 0.302 ± 0.086 |
| G333D | 0.864 ± 0.14 |
| G333E | 0.832 ± 0.22 |
| G333R | 1.08 ± 0.33 |
| C475F | 0.14 ± 0.18 |
| C475K | -0.353 ± 0.079 |
| C475P | -0.156 ± 0.23 |
| D304K | 1.11 ± 0.28 |
| T524G | 0.619 ± 0.19 |
| H454Q | 0.0498 ± 0.081 |
| D76F | -0.202 ± 0.69 |
| P422Q | 0.91 ± 0.11 |
| P422C | 1.28 ± 0.091 |
| Y394R | 0.595 ± 0.12 |
| Y394S | 0.848 ± 0.26 |
| V393A | 1.04 ± 0.068 |
| V188T | 0.434 ± 0.28 |
| V188H | 0.687 ± 0.26 |
| V188A | 0.635 ± 0.29 |
| V188Q | 0.798 ± 0.092 |
| M194E | 0.601 ± 0.086 |
| V104G | -0.0739 ± 0.33 |
| R471G | 0.676 ± 0.33 |
| R471P | 0.89 ± 0.25 |

| Variant | AIRE transcriptional activation functional score |
| --- | --- |
| P124H | 0.958 ± 0.27 |
| D514S | 0.341 ± 0.15 |
| V226P | 1.09 ± 0.3 |
| A317P | 1.23 ± 0.38 |
| L255I | 0.98 ± 0.29 |
| P483G | 1.89 ± 0.095 |
| L488P | 1.04 ± 0.17 |
| D70E | 0.94 ± 0.4 |
| R356Y | 1.03 ± 0.2 |
| G204A | 1.42 ± 0.21 |
| R8L | -0.0603 ± 0.58 |
| Q94R | 1.65 ± 0.54 |
| T183S | 0.952 ± 0.32 |
| T183E | 0.451 ± 0.27 |
| T183V | 0.738 ± 0.28 |
| E307T | 1.03 ± 0.16 |
| A145W | 2.05 ± 0.14 |
| P282S | 0.614 ± 0.22 |
| I309E | 1.43 ± 0.15 |
| I309T | 0.922 ± 0.32 |
| V20R | -0.283 ± 0.69 |
| A2E | 1.14 ± 0.08 |
| H415V | 1.06 ± 0.16 |
| P315F | 0.835 ± 0.26 |

| Variant | AIRE transcriptional activation functional score |
| --- | --- |
| S412Y | 1.5 ± 0.088 |
| E353D | 0.963 ± 0.19 |
| A450L | 1.22 ± 0.29 |
| L210Y | 0.854 ± 1.2 |
| N179G | 0.991 ± 0.43 |
| A300Y | 0.856 ± 0.26 |
| I18H | 0.614 ± 0.35 |
| S248V | 0.819 ± 0.23 |
| A451N | 0.582 ± 0.09 |
| K245P | 1.07 ± 0.11 |
| K245D | 0.145 ± 0.075 |
| G421W | 1.43 ± 0.13 |
| L122K | 0.401 ± 0.17 |
| M184A | 0.129 ± 0.52 |
| R12Y | -0.191 ± 0.23 |
| S411M | 1.37 ± 0.03 |
| L406S | 0.856 ± 0.18 |
| R132D | 0.252 ± 0.23 |
| G277R | 1.21 ± 0.25 |
| P509W | 0.591 ± 0.033 |
| A121E | 1.35 ± 0.18 |
| A121F | 1.22 ± 0.13 |
| E51F | -0.754 ± 0.3 |
